{
  "source": "paper PMC4282981",
  "about": "(Journal of immunology (Baltimore, Md. : 1950), 2014)",
  "binders": {"B1": {"name": "KIR2DL1 H36A mutant tagged with Venus at the C-terminus (receptor, UniProt P43626 22-348, looked up)", "chain": "HEGVHRKPSLLAHPGRLVKSEETVILQCWSDVMFEAFLLHREGMFNDTLRLIGEHHDGVSKANFSISRMTQDLAGTYRCYGSVTHSPYQVSAPSDPLDIVIIGLYEKPSLSAQLGPTVLAGENVTLSCSSRSSYDMYHLSREGEAHERRLPAGPKVNGTFQADFPLGPATHGGTYRCFGSFHDSPYEWSKSSDPLLVSVTGNPSNSWPSPTEPSSKTGNPRHLHILIGTSVVIILFILLFFLLHRWCSNKKNAAVMDQESAGNRTANSEDSDEQDPQEVTYTQLNHCVFTQRKITRPSQRPKTPPTDIIVYTELPNAESRSKVVSCP"}},
  "target": "Endogenous SHP-1 (human (endogenous in YTS), UniProt P29350 1-595)",
  "sequence (P29350 whole entry)": "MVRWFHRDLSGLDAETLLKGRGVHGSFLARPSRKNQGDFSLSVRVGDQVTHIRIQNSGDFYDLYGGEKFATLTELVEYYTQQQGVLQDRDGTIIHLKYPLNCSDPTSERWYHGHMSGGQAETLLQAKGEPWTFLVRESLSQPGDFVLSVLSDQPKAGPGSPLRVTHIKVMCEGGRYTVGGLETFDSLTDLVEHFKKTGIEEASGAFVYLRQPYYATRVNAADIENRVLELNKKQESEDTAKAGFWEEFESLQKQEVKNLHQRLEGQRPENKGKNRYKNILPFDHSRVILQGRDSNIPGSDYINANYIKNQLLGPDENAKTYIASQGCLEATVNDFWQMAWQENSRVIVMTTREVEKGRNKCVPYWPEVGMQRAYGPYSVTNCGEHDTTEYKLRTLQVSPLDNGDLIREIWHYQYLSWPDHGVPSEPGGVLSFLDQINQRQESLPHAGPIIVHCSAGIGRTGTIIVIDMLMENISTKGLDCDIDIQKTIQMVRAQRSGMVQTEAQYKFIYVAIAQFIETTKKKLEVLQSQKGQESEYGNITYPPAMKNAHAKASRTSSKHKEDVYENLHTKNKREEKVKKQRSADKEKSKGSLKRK",
  "assay": "co-IP",
  "data": [
    {"binder": "B1", "values": [
      {"measurement": "fold association against 2DL1-WT", "result": "~4", "unit": "fold"}
    ]}
  ]
}
